Assay results: article PMC2857867

Biological target: VACV strain WR IFNα/βBP B18 (vaccinia virus strain Western Reserve), P25213
Assay: SPR
Details: remark: other sources report otherwise

B1: hIL-29, Q8IU54 20-200 (ligand)
chain: GPVPTSKPTTTGKGCHIGRFKSLSPQELASFKKARDALEESLKLKNWSCSSPVFPGNWDLRLLQVRERPVALEAELALTLKVLEAAAGPALEDVLDQPLHTLHHILSQLQACIQPQPTAGPRPRGRLHHWLHRLQEAPKKESAGCLEASVTFNLFRLLTRDLKYVADGNLCLRTSTHPEST
Kd: 13.5 nM | kon: 193000 M⁻¹ s⁻¹
